According to patent US6043072A, “Nucleic acids encoding Taxus geranylgeranyl diphosphate synthase, and methods of use” (Washington State University Research Foundation, priority 1998, dated 2000):

Legend:
[1] = substrate: CC(C)=CCC/C(C)=C/CC/C(C)=C/CO[P@@](=O)(O)OP(=O)(O)O; assay: purified protein, by the assay type; conditions: other: double reciprocal plotting; remaining reactants at saturation
[2] = substrate: C=C(C)CCO[P@@](=O)(O)OP(=O)(O)O; assay: purified protein, by the assay type; conditions: other: double reciprocal plotting; remaining reactants at saturation

B1: T. canadensis GGPP synthase (Taxus canadensis) (protein)
chain: FDFNEYMKSKAVAVDAALDKAIPLEYPEKIHESMRYSLLAGGKRVRPALCIAACELVGGSQDLAMPTACAMEMIHTMSLIHDDLPCMDNDDFRRGKPTNHKVFGEDTAVLAGDALLSFAFEHIAVATSKTVPSDRTLRVISELGKTIGSQGLVGGQVVDITSEGDANVDLKTLEWIHIHKTAVLLECSVVSGGILGGATEDEIARIRRYARCVGLLFQVVDDILDVTKSSEELGKTAGKDLLTDKATYPKLMGLEKAKEFAAELATRAKEELSSFDQIKAAPLLGLADYIAFRQN
Km [1]: 6 µM
Km [2]: 7 µM
